According to paper PMC10293748:

Target: SARS-CoV-2 RBDWT, His-tagged, soluble (SARS-CoV-2) (UniProt P0DTC2)
Experiment: ELISA

Substance: soluble ACE2 (sACE2), commercially available, His-tagged (domain or fragment)
- IC50: 179 nM
